Measurements reported in patent publication US20230322953A1 (HARBOUR BIOMED SHANGHAI, published 2023).
Residue numbers refer to the chain shown, from its start.

T1: human BCMA (human, UniProt Q02223 1-184)
T1 construct: whole, on cells; the cell line is named under assay; also called TNFRSF17; CD269
T1 sequence (looked up): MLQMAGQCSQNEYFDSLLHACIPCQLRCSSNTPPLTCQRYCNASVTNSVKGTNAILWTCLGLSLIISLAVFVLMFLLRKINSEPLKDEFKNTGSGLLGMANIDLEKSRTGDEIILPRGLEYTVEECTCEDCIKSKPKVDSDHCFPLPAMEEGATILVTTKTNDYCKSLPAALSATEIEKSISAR

T2: biotinylated human BCMA-Fc, Avitag recombinant protein (ACRO Biosystems, #BC7-H82F0) (human, UniProt Q02223 1-54, biotinylated)
T2 construct: extracellular domain; Bought protein; also called human BCMA protein; recombinant human BCMA-ECD-Fc; not shown: Fc of the bought fusion protein; Avitag
T2 sequence (looked up): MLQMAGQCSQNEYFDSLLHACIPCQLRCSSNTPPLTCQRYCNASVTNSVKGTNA

T3: human BCMA (human, UniProt Q02223 1-184)
T3 construct: whole, on cells; also called hBCMA; TNFRSF17
T3 sequence (looked up): T1 sequence (looked up)

B1: PR002301 (bispecific antibody, human IgG1, lambda, L234A L235A)
light: QAVVTQEPSLTVSPGGTVTLTCRSSTGAVTTSNYANWVQQKPGQAPRGLIGGTNKRAPWTPARFSGSLLGDKAALTLLGAQPEDEAEYFCALWYSNLWVFGGGTKLTVLGQPKAAPSVTLFPPSSEELQANKATLVCLISDFYPGAVTVAWKADSSPVKAGVETTTPSKQSNNKYAASSYLSLTPEQWKSHRSYSCQVTHEGSTVEKTVAPTECS
heavy: EVQLLESGGGLVQPGGSLRLSCAASGFTFSTYAMNWVRQAPGKGLEWVSRIRSKYNNYATYYADSVKDRFTISRDDSKSTLYLQMNSLRAEDTAVYYCVRHGNFGNSYVSWFAYWGQGTLVTVSSASTKGPSVFPLAPSSKSTSGGTAALGCLVKDYFPEPVTVSWNSGALTSGVHTFPAVLQSSGLYSLSSVVTVPSSSLGTQTYICNVNHKPSNTKVDKKVEPKSCDKTHTCPPCPAPEAAGGPSVFLFPPKPKDTLMISRTPEVTCVVVDVSHEDPEVKFNWYVDGVEVHNAKTKPREEQYNSTYRVVSVLTVLHQDWLNGKEYKCKVSNKALGAPIEKTISKAKGQPREPQVYTLPPCREEMTKNQVSLWCLVKGFYPSDIAVEWESNGQPENNYKTTPPVLDSDGSFFLYSKLTVDKSRWQQGNVFSCSVMHEALHNHYTQKSLSLSPGK
chain: EVQLLESGGGLVQPGGSLRLSCAASGFTFSSYAMIWVRQAPGKGLEWVSGISESGGSTYYADSVKGRFTISRDNSKNTLYLQMNSLRAEDTAVYFCVKDLDDILTGYYKDYWGQGTLVTVSSRTGGGGSGGGGSGGGGSGGGGSGGGGSKLEVQLLESGGGLVQPGGSLRLSCAASGFTFSSYAMIWVRQAPGKGLEWVSGISESGGSTYYADSVKGRFTISRDNSKNTLYLQMNSLRAEDTAVYFCVKDLDDILTGYYKDYWGQGTLVTVSSASEPKSSDKTHTCPPCPAPEAAGGPSVFLFPPKPKDTLMISRTPEVTCVVVDVSHEDPEVKFNWYVDGVEVHNAKTKPREEQYNSTYRVVSVLTVLHQDWLNGKEYKCKVSNKALGAPIEKTISKAKGQPREPQVCTLPPSREEMTKNQVSLSCAVKGFYPSDIAVEWESNGQPENNYKTTPPVLDSDGSFFLVSKLTVDKSRWQQGNVFSCSVMHEALHNHYTQKSLSLSPGK
B2: PR002308 (bispecific antibody, human IgG1, lambda, L234A L235A)
light: B1 light
heavy: B1 heavy
chain: EVQLVETGGGLIQPGGSLRLSCAASGFTVSDNYMTWVRQAPGKGLEWVSVIFSGGNTYYADSVKGRFTISRDNAKNTLYLQMNSLRAEDTALYYCARRNYDDTRGTDVFDIWGQGTMVTVSSRTGGGGSKLEVQLVETGGGLIQPGGSLRLSCAASGFTVSDNYMTWVRQAPGKGLEWVSVIFSGGNTYYADSVKGRFTISRDNAKNTLYLQMNSLRAEDTALYYCARRNYDDTRGTDVFDIWGQGTMVTVSSASEPKSSDKTHTCPPCPAPEAAGGPSVFLFPPKPKDTLMISRTPEVTCVVVDVSHEDPEVKFNWYVDGVEVHNAKTKPREEQYNSTYRVVSVLTVLHQDWLNGKEYKCKVSNKALGAPIEKTISKAKGQPREPQVCTLPPSREEMTKNQVSLSCAVKGFYPSDIAVEWESNGQPENNYKTTPPVLDSDGSFFLVSKLTVDKSRWQQGNVFSCSVMHEALHNHYTQKSLSLSPGK
B3: PR002313 (bispecific antibody, human IgG1, lambda, L234A L235A)
light: B1 light
heavy: B1 heavy
chain: EVQLLESGGGLVQPGGSLRLSCAASGFTFSSYAMIWVRQAPGKGLEWVSGISESGGSTYYADSVKGRFTISRDNSKNTLYLQMNSLRAEDTAVYFCVKDLDDILTGYYKDYWGQGTLVTVSSRTGGGGSGGGGSGGGGSKLEVQLVETGGGLIQPGGSLRLSCAASGFPVSSNYMSWVRQAPGKGLEWVSVIFSGGRTYYADSVKGRFTISRDNSKNTLYLQMNSLRAEDTAVYYCARRNWIDGRDAFDIWGQGTMVTVSSASEPKSSDKTHTCPPCPAPEAAGGPSVFLFPPKPKDTLMISRTPEVTCVVVDVSHEDPEVKFNWYVDGVEVHNAKTKPREEQYNSTYRVVSVLTVLHQDWLNGKEYKCKVSNKALGAPIEKTISKAKGQPREPQVCTLPPSREEMTKNQVSLSCAVKGFYPSDIAVEWESNGQPENNYKTTPPVLDSDGSFFLVSKLTVDKSRWQQGNVFSCSVMHEALHNHYTQKSLSLSPGK
B4: PR002310 (bispecific antibody, human IgG1, lambda, L234A L235A)
light: B1 light
heavy: B1 heavy
chain: EVQLVETGGGLIQPGGSLRLSCAASGFTVSDNYMTWVRQAPGKGLEWVSVIFSGGNTYYADSVKGRFTISRDNAKNTLYLQMNSLRAEDTALYYCARRNYDDTRGTDVFDIWGQGTMVTVSSRTGGGGSGGGGSGGGGSGGGGSGGGGSKLEVQLVETGGGLIQPGGSLRLSCAASGFTVSDNYMTWVRQAPGKGLEWVSVIFSGGNTYYADSVKGRFTISRDNAKNTLYLQMNSLRAEDTALYYCARRNYDDTRGTDVFDIWGQGTMVTVSSASEPKSSDKTHTCPPCPAPEAAGGPSVFLFPPKPKDTLMISRTPEVTCVVVDVSHEDPEVKFNWYVDGVEVHNAKTKPREEQYNSTYRVVSVLTVLHQDWLNGKEYKCKVSNKALGAPIEKTISKAKGQPREPQVCTLPPSREEMTKNQVSLSCAVKGFYPSDIAVEWESNGQPENNYKTTPPVLDSDGSFFLVSKLTVDKSRWQQGNVFSCSVMHEALHNHYTQKSLSLSPGK
B5: PR004563, PR001046 VH-derived single-domain variant 1046-R2-1A1 (VHH)
VHH: EVQLVETGGGLIQPGGSLRLSCAASGFTVYDNYMTWVRQAPGKGLEWVSVIFSGGKTYVADSVKGRFTISRDNAKNTLYLQMNSLRAEDTALYYCARRNYDQTRGTDVFDIWGQGTMVTVSS
notes: Tested as VH single domain with Flag and His tags; not shown: Flag and His tags
B6: PR004566, PR001046 VH-derived single-domain variant 1046-R2-4G10 (VHH)
VHH: B5 VHH with Y30S, N32S, K56R, V59Y, A60S, Q102D
notes: as for B5
B7: PR004574, PR001046 VH-derived single-domain variant 1046-R2-9E5 (VHH)
VHH: B5 VHH with Y30S, N32A, K56R, V59Y, A60S
notes: as for B5
B8: PR004573, PR001046 VH-derived single-domain variant 1046-R2-8B1 (VHH)
VHH: B5 VHH with Y30S, N32S, V59Y, Q102D
notes: as for B5
B9: PR004568, PR001046 VH-derived single-domain variant 1046-R2-5H1 (VHH)
VHH: B5 VHH with Y30S, N32A, K56R, Q102D
notes: as for B5
B10: PR004570, PR001046 VH-derived single-domain variant 1046-R2-6D6 (VHH)
VHH: B5 VHH with Y30S, N32A, K56R, V59Y
notes: as for B5
B11: PR004571, PR001046 VH-derived single-domain variant 1046-R2-6F1 (VHH)
VHH: B5 VHH with Y30S, N32S, V59Y, A60S, R104I
notes: as for B5
B12: PR004572, PR001046 VH-derived single-domain variant 1046-R2-7E7 (VHH)
VHH: B5 VHH with Y30S, N32S, Q102D
notes: Tested as VH single domain with Flag and His tags; also called PR001046-R2-7E7; not shown: Flag and His tags
B13: PR004567, PR001046 VH-derived single-domain variant 1046-R2-5E1 (VHH)
VHH: B5 VHH with Y30S, N32S
notes: as for B5
B14: PR004564, PR001046 VH-derived single-domain variant 1046-R2-2D4 (VHH)
VHH: B5 VHH with Y30S, N32S, K56R, V59Y, A60S, R104L
notes: as for B5
B15: PR004569, PR001046 VH-derived single-domain variant 1046-R2-5H2 (VHH)
VHH: B5 VHH with Y30S, N32S, K56R, V59Y, A60S
notes: as for B5
B16: PR004565, PR001046 VH-derived single-domain variant 1046-R2-2G4 (VHH)
VHH: B5 VHH with Y30S, N32A, K56N, A60S, R104I
notes: as for B5

target: T4, cynomolgus monkey BCMA (cynomolgus monkey, UniProt A0A2K5UD97 1-183); experiment: FACS on HEK293T/cyno BCMA cells
T4 construct: whole, on cells; also called cyno BCMA
T4 sequence (A0A2K5UD97 entry or part of it): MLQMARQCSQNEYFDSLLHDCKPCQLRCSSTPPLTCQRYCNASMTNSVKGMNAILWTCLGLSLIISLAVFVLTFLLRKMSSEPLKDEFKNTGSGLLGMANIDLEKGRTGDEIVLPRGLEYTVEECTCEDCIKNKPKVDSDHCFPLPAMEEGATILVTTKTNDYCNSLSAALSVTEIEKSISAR
Description: This example is intended to investigate the binding activity of anti-BCMA HCAb antibodies to human and cynomolgus monkey BCMAs. […] Specifically, HEK293T/hBCMA cells and HEK293T/cyno BCMA cells were digested and resuspended in a DMEM complete medium. In addition, NCI-H929 cell suspension was collected. The density of each of the three cells was adjusted to 1×10⁶ cells/mL. […] The cells were incubated at 4° C. for 1 h away from light. Thereafter, the cells in each well were rinsed twice with 100 μL of pre-cooled PBS, and centrifuged at 500 g at 4° C. for 5 min, and then the supernatant was discarded. […] The cells in each well were rinsed twice with 100 μL of pre-cooled PBS, and centrifuged at 500 g at 4° C. for 5 min, and then the supernatant was discarded. Finally, the cells in each well were resuspended in 200 μL of pre-cooled PBS. Fluorescence signal values were read using a BD FACS CANTOII flow cytometer or an ACEA NovoCyte flow cytometer, and the data were processed and analyzed using FlowJo v10 (FlowJo, LLC) software. The data were processed and analyzed by plotting using GraphPad Prism 8 software, and binding curves of the antibodies to target cells, EC₅₀ values and other parameters were obtained through four-parameter nonlinear fitting.

Binder | Maximum MFI
B1 | 13000
B2 | 39300
B3 | 7610
B4 | 42000

target: T1, human BCMA; experiment: flow cytometry, NCI-H929 cells, Flag-tagged VH single domain, anti-tag secondary antibody
Description: Specifically, HEK293T/hBCMA cells and HEK293T/cyno BCMA cells were digested and resuspended in a DMEM complete medium. In addition, NCI-H929 cell suspension was collected. The density of each of the three cells was adjusted to 1×10⁶ cells/mL. […] The cells were incubated at 4° C. for 1 h away from light. Thereafter, the cells in each well were rinsed twice with 100 μL of pre-cooled PBS, and centrifuged at 500 g at 4° C. for 5 min, and then the supernatant was discarded. […] The cells in each well were rinsed twice with 100 μL of pre-cooled PBS, and centrifuged at 500 g at 4° C. for 5 min, and then the supernatant was discarded. Finally, the cells in each well were resuspended in 200 μL of pre-cooled PBS. Fluorescence signal values were read using a BD FACS CANTOII flow cytometer or an ACEA NovoCyte flow cytometer, and the data were processed and analyzed using FlowJo v10 (FlowJo, LLC) software. The data were processed and analyzed by plotting using GraphPad Prism 8 software, and binding curves of the antibodies to target cells, EC₅₀ values and other parameters were obtained through four-parameter nonlinear fitting.
It is specifically noted that the recombinant variant molecules are VH single-domain antibody molecules with a Flag tag, and a fluorescent secondary antibody against the tag is required in the FACS assay.

Binder | EC50 | Maximum MFI
B5 | 7.96 nM | 1260
B6 | 3.17 nM | 1400
B7 | 2.9 nM | 1300
B8 | 1.72 nM | 1230
B9 | 2.85 nM | 1440
B10 | 2.15 nM | 1360
B11 | 2.86 nM | 1380
B12 | 0.54 nM | 1500
B13 | 1.72 nM | 1440
B14 | 1.34 nM | 1530
B15 | 5.87 nM | 1420
B16 | 2.42 nM | 1430

target: T2, biotinylated human BCMA-Fc, Avitag …; experiment: BLI (Octet Red96e), biotinylated BCMA-Fc on SA sensor, VH supernatant, 100 nM, single concentration
Description: (§1) In this example, the binding kinetics between the anti-BCMA antibody and the BCMA antigenic protein were analyzed by the Biolayer Interferometry (BLI) technique using an Octet Red96e molecular interaction analyzer (ForteBio, Octet Red96e).

Binder | Response | koff
B5 | 0.493 | 0.000259 s⁻¹
B6 | 0.424 | 0.000286 s⁻¹
B7 | 0.29 | 0.000314 s⁻¹
B8 | 0.268 | 0.000282 s⁻¹
B9 | 0.733 | 0.00023 s⁻¹
B10 | 0.437 | 0.000234 s⁻¹
B11 | 0.704 | 0.000219 s⁻¹
B12 | 0.29 | 0.000236 s⁻¹
B13 | 0.578 | 0.000201 s⁻¹
B14 | 0.57 | 0.000228 s⁻¹
B15 | 0.73 | 0.000254 s⁻¹
B16 | 0.557 | 0.000236 s⁻¹

target: T2, biotinylated human BCMA-Fc, Avitag …; experiment: BLI, dissociation rate relative to the original molecule PR001046 VH
Description: as §1

Binder | Kdis fold
B5 | 0.37
B6 | 0.41
B7 | 0.45
B8 | 0.41
B9 | 0.33
B10 | 0.34
B11 | 0.31
B12 | 0.34
B13 | 0.29
B14 | 0.33
B15 | 0.36
B16 | 0.34

target: T3, human BCMA; experiment: FACS on NCI-H929 cells

Binder | Maximum MFI | EC50
B1 | 53000 | –
B2 | 63900 | 1.82 nM
B3 | 78000 | 17.1 nM
B4 | 61300 | 2.09 nM
